For three substances, Kd results are on record in patent US20190177716A1.

By Kd is commonly meant the free concentration of one partner at which half of the binding sites on the other are occupied at equilibrium, for simple one-to-one binding. Low values mean a tighter complex, high ones a looser complex.

Assay [1] deals with CD28 expressed on Jurkat.E6 cells (human) (UniProt P10747). Put plainly: flow cytometry on Jurkat.E6 cells at 25 C, secondary goat anti-mouse IgG staining, one-site specific binding fit. (In general: Flow cytometry measures light scatter and fluorescence of single cells or particles in a stream.)
Assay [2] has as its target CD3ε of the TCR-CD3 complex expressed on Jurkat cells (T-cell Surface Glycoprotein CD3 Epsilon) (human) (UniProt P07766). Described as above.

In assay [1], “anti-CD28 monoclonal antibody (mouse anti-human, isotype IgG2a, Clone 9.3, BioXCell Catalog# BE0248)” came in with a Kd of 1.6 nM.
As for “anti-CD3 monoclonal antibody clone UCHT1 (mouse anti-human, isotype IgG1, BioXCell Catalog# BE0231)”, the Kd in assay [2] came out at 1.4 nM.
Same read-out and setting: as for “anti-CD3 monoclonal antibody clone OKT3 (mouse anti-human, isotype IgG2a, BioXCell Catalog# BE0001-2)”, the figure is 1.5 nM.
